Experimental findings from publication PMC3427180, “Zea mays Taxilin Protein Negatively Regulates Opaque-2 Transcriptional Activity by Causing a Change in Its Sub-Cellular Distribution” (PLoS ONE, 2012) are described below.

This assay deals with T1, Full length Zea mays Opaque-2 (ZmO2) fused to the GAL4 DNA binding domain (Zea mays, UniProt P12959 1-453).
T1 sequence (looked up): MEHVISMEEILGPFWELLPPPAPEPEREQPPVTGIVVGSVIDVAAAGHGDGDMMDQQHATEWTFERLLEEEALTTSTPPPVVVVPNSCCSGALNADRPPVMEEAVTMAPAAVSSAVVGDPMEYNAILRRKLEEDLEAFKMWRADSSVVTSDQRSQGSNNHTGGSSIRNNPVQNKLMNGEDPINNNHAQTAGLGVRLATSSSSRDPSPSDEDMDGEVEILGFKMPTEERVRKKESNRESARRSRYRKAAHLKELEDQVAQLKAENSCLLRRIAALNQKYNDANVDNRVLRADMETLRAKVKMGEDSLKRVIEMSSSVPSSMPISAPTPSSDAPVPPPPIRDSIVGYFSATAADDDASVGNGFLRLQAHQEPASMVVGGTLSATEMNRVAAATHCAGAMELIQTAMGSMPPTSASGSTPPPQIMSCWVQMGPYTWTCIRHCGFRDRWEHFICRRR
The assay is described as follows: cell-based or functional assay.

B1: Full length ZmTaxilin fused to the GAL4 activation domain (natural protein, Zea mays, UniProt C0P5X2 1-425, looked up)
chain: MEGSPVARLPEANSLPDGFVPDSESSDTDAAPPSSAPIVDDAIDSDSPDATNPGGEETLSDPSLPASTAEDASSAAAAEALDTLCLDVVADPERALGEHGPTTAARGEGSLKENRASEQVGAPSDQKVVKGSGEPKRKVIKHSKLEKDKELFQLAQQYHKVVAERDQAIAVKDRLESLCREFQRQNKMLKEECQRVSTEGQNMRTELSEKFDHAIKGVSAKLEEQRVERISQLEENNTLRSKLKDLADQYNITQQKYAHQLKEKMLELELADLRLQQHQEKAAQEHTQMQLYAEQVSQLMTTEKNLRLQLASDGERFQHFQDALSKSNEVFETYKQEMEKMISVIKNLKKENEFLKGKCENSDIAIVKLIEERELTKKQIEKLKNQREKLESLCRTLQAERKQGPSASIPDAPSSQEVSATSQES
For the molecule B1, the “GUS/luciferase ratio from the z1C (22-kD zein) promoter reporter in onion epidermal cells; YFP-O2 co-expressed with CFP-Taxilin against YFP-O2 alone” value is 47%.
